Assay results taken from article PMC10439028, “SGLT5 is the renal transporter for 1,5-anhydroglucitol, a major player in two rare forms of neutropenia” (Cellular and Molecular Life Sciences: CMLS, 2023).

Substrate: OC[C@H]1OC[C@H](O)[C@@H](O)[C@@H]1O
Assay: 1,5-AG uptake in HEK293T cells overexpressing SGLT5 variant Ala522Val
Assay type: cell-based, human
Conditions: other: variant Ala522Val (rs12604020); pH 7.4; 37.0 °C
Procedure: For a typical transporter experiment we proceeded as follows. […] To minimize cell loss during the various washing steps in the radioactive uptake experiments, the wells where the cells were seeded were previously coated with poly- D-lysine, which improved their adhesion to the plastic surface of the wells. For this, each well of the 24-well plates was treated with 200 µl of a 0.01% poly-L-lysine solution for 10 min, washed 3 times with 1 ml of sterilized water and left to dry for 2 h. Only then could the 24-well plates be seeded with the appropriate cell lines and cultured overnight at 37 °C in 5% CO2.
On day two, the radioactive uptake assay could be performed. The cell culture media was removed by aspiration and cells were incubated for 20 min at 37 °C and 5% CO2 with a basal medium (10 mM HEPES, pH 7.4, 1 mM CaCl2, 1 mM MgCl2, 2 mM KCl) containing 140 mM choline chloride to deplete intracellular Na^2+ ions. […]
Once the uptake medium was added to the cells, the plates were incubated at 37 °C in 5% CO2 during the required time. […] In each experiment, the transport activities were calculated after subtracting a “blank” value, corresponding to the radioactivity in the appropriate control cells (HEK293T cells that were stably or transiently transfected with one of the parent plasmids pEF6/MycHisA, pEF6HisB, pUB82 or pUB83 with no inserted cDNA) that were analyzed in parallel. […]

B1: hSGLT5 Ala522Val (Homo sapiens; A522V) (protein)
chain: MAANSTSDLHTPGTQLSVADIIVITVYFALNVAVGIWSSCRASRNTVNGYFLAGRDMTWWPIGASLFASSEGSGLFIGLAGSGAAGGLAVAGFEWNATYVLLALAWVFVPIYISSEIVTLPEYIQKRYGGQRIRMYLSVLSLLLSVFTKISLDLYAGALFVHICLGWNFYLSTILTLGITALYTIAGGLAAVIYTDALQTLIMVVGAVILTIKAFDQIGGYGQLEAAYAQAIPSRTIANTTCHLPRTDAMHMFRDPHTGDLPWTGMTFGLTIMATWYWCTDQVIVQRSLSARDLNHAKAGSILASYLKMLPMGLIIMPGMISRALFPDDVGCVVPSECLRACGAEVGCSNIAYPKLVMELMPIGLRGLMIAVMLAALMSSLTSIFNSSSTLFTMDIWRRLRPRSGERELLLVGRLVIVALIGVSVAWIPVLQDSNSGQLFIYMQSVTSSLAPPVTAVFVLGVFWRRANEQGAFWGLIAGLVVGATRLVLEFLNPAPPCGEPDTRPAVLGSIHYLHFAVALFVLSGAVVVAGSLLTPPPQSVQIENLTWWTLAQDVPLGTKAGDGQTPQKHAFWARVCGFNAILLMCVNIFFYAYFA
notes: pUB83-hSGLT5-iso2 as well as the various SGLT5 mutants obtained were used to transduce HEK293T cells; expressed in transfected cells; host or cells: HEK293T, lentiviral transduction (pUB83)
  Km: 210 ± 12 µM
